US20010041790A1

Columns and labels:
[1] = molecular target: 35S-labeled hamster PrPsen, glycophosphoinositol-negative form (35S-HaPrPsen) (Syrian golden hamster) (UniProt P04273); test: cell-based or functional assay
[2] = molecular target: murine PrPsen (mouse) (UniProt P04925); test: cell-based or functional assay

Substance | IC50 of the conversion reaction [1] [µM] | other results
hamster PrP synthetic peptide P119-128 | 550 | –
hamster PrP synthetic peptide P117-141 | 80 | –
Mo3F4P109-141 (peptide) | – | IC50 of murine PrP conversion [2]: 50 µM
hamster PrP synthetic peptide P119-141 | 120 | –
MoP109-141 (peptide) | – | IC50 of the hamster PrP conversion reaction [1]: 70 µM; IC50 of murine PrP conversion [2]: 50 µM
hamster PrP synthetic peptide P113-141 | – | IC50 of the in vitro conversion [1]: 40 µM
hamster PrP synthetic peptide P119-136 | < 100 | –
hamster PrP synthetic peptide P115-141 | 40 | –
